{"source": "paper PMC5680779", "target": "HIV-1 Integrase (IN) from NL4-3, Flag-tagged (HIV-1 NL4-3)", "assay": "AlphaScreen or HTRF; HTRF-based IN-IN multimerization assay with Flag-tagged and His-tagged IN from NL4-3; with the small molecule MUT-A, signal compared to the IN-IN signal without MUT-A"}
{"substance": "HIV-1 Integrase (IN) from NL4-3, Flag-tagged (enzyme)", "values": [{"measurement": "maximum multimerization signal plateau with MUT-A (percent of the IN-IN signal without MUT-A)", "result": 600, "unit": "%"}]}
